According to patent US20230357398A1 (MorphoSys, published 2023):

Key:
[1] = target: T1, cynomolgus CD3 epsilon, cell surface expressed (cynomolgus monkey PBMCs) (cynomolgus monkey, UniProt Q95LI5 22-198); experiment: flow cytometry on cynomolgus monkey PBMCs, IgG titration
T1 construct: On the cells CD3 epsilon is part of the native CD3/TCR complex; also called cyno CD3

[2] = target: T2, cyCD3e(1-109)_F-chLys_avi (cynomolgus monkey); experiment: BLI (Octet HTX); FabCys captured on Fab-specific sensor, CD3e antigen as analyte; 1:1 model
T2 construct: also called cynomolgus monkey CD3 epsilon antigen
T2 sequence (chain, as listed by the source limits assumed): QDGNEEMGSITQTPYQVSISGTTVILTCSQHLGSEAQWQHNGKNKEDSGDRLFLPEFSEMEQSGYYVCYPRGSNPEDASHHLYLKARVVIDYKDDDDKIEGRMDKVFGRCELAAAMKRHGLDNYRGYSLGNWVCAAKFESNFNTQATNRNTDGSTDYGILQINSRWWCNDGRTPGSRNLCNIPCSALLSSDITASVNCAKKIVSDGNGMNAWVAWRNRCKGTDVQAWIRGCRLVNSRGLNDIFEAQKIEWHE
Protocol: (§1) Affinity determination by determining kinetic rate constants was performed on an Octet HTX (FortéBIO, Sartorius AG) instrument as described below.
(§2) The different Fab-Cys samples diluted in assay buffer (D-PBS, 0.05% (v/v) PS 20, 0.1% (w/v) BSA) were captured onto Fab-specific BLI sensors with a loading level of approx. 0.5 nm. […] A blank sample with assay buffer was included for referencing, i.e. correcting for dissociation of captured antibody. The association phase was recorded for 300 s, followed by a dissociation phase of 900 s. After each cycle, the biosensors were regenerated two times with 10 mM Glycine HCl pH 1.7 to remove bound ligand/antibody complex, while maintaining the integrity of the capture surface. Between regeneration steps, biosensors were washed with assay buffer for 20 s.
(§3) The sensorgrams were fitted using Octet Data Analysis Software 10.0 (FortéBio, Sartorius AG) to determine kₒₙ and koff rate constants (using a 1:1 binding model), which were used to calculate KD.

[3] = target: T3, Mature human CD3e(1-118)_FLAG-chLys_Avi (human); experiment: as above
T3 construct: also called human CD3 epsilon antigen
T3 sequence (chain, as listed by the source limits assumed): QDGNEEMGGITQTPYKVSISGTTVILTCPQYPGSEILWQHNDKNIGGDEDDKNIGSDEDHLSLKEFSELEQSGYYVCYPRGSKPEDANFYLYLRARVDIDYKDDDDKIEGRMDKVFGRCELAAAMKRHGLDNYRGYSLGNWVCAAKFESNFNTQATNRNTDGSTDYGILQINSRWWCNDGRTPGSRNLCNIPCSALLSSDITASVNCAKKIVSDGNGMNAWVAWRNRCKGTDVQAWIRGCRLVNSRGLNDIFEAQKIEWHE
Protocol: as §1, §2, §3

[4] = target: T1, cynomolgus CD3 epsilon, cell surface …; experiment: flow cytometry (FACS) on cynomolgus PBMCs
Protocol: (§4) Antibody staining was measured using a multiformat Flow Cytometer (NovoCyte, Agilent Technologies) and analyzed using NovoExpress software (Version 1.5.0). Lymphocytes were identified by morphological gating of forward and side scatters. EC₅₀ values were calculated using 4-parameter non-linear regression analysis in Prism software (GraphPad Software Inc., version 8.4.3).

[5] = target: T2, cyCD3e(1-109)_F-chLys_avi; experiment: BLI (Octet HTX); FabCys captured on Fab-specific sensor, CD3e antigen as analyte; 1:1 model; dissociation approaching assay limit
Protocol: as §1, §2, §3

[6] = target: T2, cyCD3e(1-109)_F-chLys_avi; experiment: BLI (Octet HTX); FabCys captured on Fab-specific sensor, CD3e antigen as analyte; 1:1 model; less precise, dissociation at assay limit
Protocol: as §1, §2, §3

[7] = target: T4, human CD3 epsilon, cell surface expressed (human PBMCs / human T cells) (human, UniProt P07766 23-207); experiment: flow cytometry (FACS) on human PBMCs
T4 construct: On the cells CD3 epsilon is part of the native CD3/TCR complex; also called CD3 on human PBMCs
T4 sequence (P07766 23-207 limits assumed): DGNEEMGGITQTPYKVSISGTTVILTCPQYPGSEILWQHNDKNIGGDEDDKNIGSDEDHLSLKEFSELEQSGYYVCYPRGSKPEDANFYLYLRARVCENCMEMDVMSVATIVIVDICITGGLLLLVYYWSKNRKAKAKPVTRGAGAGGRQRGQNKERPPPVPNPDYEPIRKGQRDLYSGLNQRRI
Protocol: as §4

[8] = target: T2, cyCD3e(1-109)_F-chLys_avi; experiment: BLI (Octet HTX); FabCys captured on Fab-specific sensor, CD3e antigen as analyte; 1:1 model; rate set to assay limit
Protocol: as §1, §2, §3

T1 sequence (Q95LI5 22-198 limits assumed): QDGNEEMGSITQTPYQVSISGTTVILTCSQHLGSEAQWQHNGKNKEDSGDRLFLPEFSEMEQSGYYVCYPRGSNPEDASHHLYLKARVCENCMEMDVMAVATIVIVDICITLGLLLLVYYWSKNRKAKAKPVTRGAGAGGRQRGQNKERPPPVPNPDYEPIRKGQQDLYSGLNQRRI

B1: MAB-1 (parental) (antibody, V domains shown)
VH: EVQLVESGGGLVQPGGSLRLSCAASGFTFSSYWMSWVRQAPGKGLEWVANIKQDGSEKYYVDSVKGRFTISRDNAKNSLYLQMNSLRAEDTAVYYCARGYSAEFAHRSGLDVWGQGTLVTVSS
VL: QSVLTQPPSASGTPGQRVTISCSGSSSNIGSNYVYWYQQLPGTAPKLLIYRNNQRPSGVPDRFSGSKSGTSASLAISGLRSEDEADYYCAAWDHHRSGAVFGGGTKLTVLG
notes: also called MAB-1 IgG; parental antibody MAB-1
**Q.** Does B1 bind [1]?
**A.** binds

B2: MAB-8_h_FabCys (Fab, V domains shown)
VH: EVQLVESGGGLVQPGGSLRLSCAASGFTFRSHYMTWVRQAPGKGLEWVANIDYEGTRTYYAESVKGRFTISRDNAKNSLYLQMNSLRAEDTAVYYCARGYSAEFAHRSGLDVWGQGTLVTVSS
VL: QSVLTQPPSASGTPGQRVTISCSGSSSNIGSNYVYWYQQLPGTAPKLLIYRNNQRPSGVPDRFSGSKSGTSASLAISGLRSEDEADYYCAAWDRHSHGAVFGGGTKLTVLG
notes: Tagless disulfide-bridged human FabCys produced in HEK293 cells; also called MAB-8 Fab-Cys
**Q.** Which kon [2] does the source give for B2 here?
**A.** 464000 M⁻¹ s⁻¹

**Q.** What about the Kd [3] of the same binder?
**A.** 0.3 nM

**Q.** And the koff [3]?
**A.** 0.000258 s⁻¹

**Q.** And the kon [3]?
**A.** 802000 M⁻¹ s⁻¹

**Q.** What about the EC50 [4] of the same binder?
**A.** 3.2 nM

**Q.** And the koff [5]?
**A.** ~5.07e-05 s⁻¹

**Q.** What about the Kd [6] of the same binder?
**A.** ~0.1 nM

**Q.** And the EC50 [7]?
**A.** 5.5 nM

B3: MAB-16_h_FabCys (Fab, V domains shown)
VH: EVQLVESGGGLVQPGGSLRLSCAASGFTFRSHYMTWVRQAPGKGLEWVANIDYEGTRTYYAESVKGRFTISRDNAKNSLYLQMNSLRAEDTAVYYCARGYSAEFAHRSGLDVWGQGTLVTVSS
VL: QSVLTQPPSASGTPGQRVTISCSGSSSNIGSNYVYWYQQLPGTAPKLLIYRNNQRPSGVPDRFSGSKSGTSASLAISGLRSEDEADYYCAGWDRRLHGAVFGGGTKLTVLG
notes: Tagless disulfide-bridged human FabCys produced in HEK293 cells; also called MAB-16 Fab-Cys
**Q.** For B3, which Kd [2] is on record?
**A.** 0.2 nM

**Q.** What about the koff [2] of the same binder?
**A.** 7.92e-05 s⁻¹

**Q.** And the kon [2]?
**A.** 478000 M⁻¹ s⁻¹

**Q.** And the Kd [3]?
**A.** 0.3 nM

**Q.** And the koff [3]?
**A.** 0.000272 s⁻¹

**Q.** What about the kon [3] of the same binder?
**A.** 852000 M⁻¹ s⁻¹

**Q.** And the EC50 [4]?
**A.** 2 nM

**Q.** And the EC50 [7]?
**A.** 3.3 nM

B4: MAB-12_h_FabCys (Fab, V domains shown)
VH: EVQLVESGGGLVQPGGSLRLSCAASGFTFRSHYMTWVRQAPGKGLEWVANIDYEGTRTYYAESVKGRFTISRDNAKNSLYLQMNSLRAEDTAVYYCARGYSAEFAHRSGLDVWGQGTLVTVSS
VL: QSVLTQPPSASGTPGQRVTISCSGSSSNIGANYVYWYQQLPGTAPKLLIYRNNQRPSGVPDRFSGSKSGTSASLAISGLRSEDEADYYCAAWDRHSHGAVFGGGTKLTVLG
notes: Tagless disulfide-bridged human FabCys produced in HEK293 cells; also called MAB-12 Fab-Cys
**Q.** How did the kon [2] turn out when B4 was run?
**A.** 445000 M⁻¹ s⁻¹

**Q.** And the Kd [3]?
**A.** 0.3 nM

**Q.** And the koff [3]?
**A.** 0.000188 s⁻¹

**Q.** What about the kon [3] of the same binder?
**A.** 650000 M⁻¹ s⁻¹

**Q.** What about the koff [8] of the same binder?
**A.** ≤ 5e-05 s⁻¹

**Q.** And the EC50 [4]?
**A.** 4.1 nM

**Q.** What about the Kd [6] of the same binder?
**A.** ≤ 0.1 nM

**Q.** And the EC50 [7]?
**A.** 5.7 nM

B5: MAB-13_h_FabCys (Fab, V domains shown)
VH: EVQLVESGGGLVQPGGSLRLSCAASGFTFRSHYMTWVRQAPGKGLEWVANIDYEGTRTYYAESVKGRFTISRDNAKNSLYLQMNSLRAEDTAVYYCARGYSAEFAHRSGLDVWGQGTLVTVSS
VL: QSVLTQPPSASGTPGQRVTISCSGSSSNIGINYVYWYQQLPGTAPKLLIYRNNQRPSGVPDRFSGSKSGTSASLAISGLRSEDEADYYCAAWDRHSHGAVFGGGTKLTVLG
notes: Tagless disulfide-bridged human FabCys produced in HEK293 cells; also called MAB-13 Fab-Cys
**Q.** B5 was tested. Which kon [2] did it give?
**A.** 413000 M⁻¹ s⁻¹

**Q.** What about the Kd [3] of the same binder?
**A.** 0.2 nM

**Q.** And the koff [3]?
**A.** 0.000134 s⁻¹

**Q.** And the kon [3]?
**A.** 705000 M⁻¹ s⁻¹

**Q.** And the koff [8]?
**A.** ≤ 5e-05 s⁻¹

**Q.** What about the EC50 [4] of the same binder?
**A.** 5.2 nM

**Q.** What about the Kd [6] of the same binder?
**A.** ≤ 0.1 nM

**Q.** And the EC50 [7]?
**A.** 8.3 nM

B6: MAB-7_h_FabCys (Fab, V domains shown)
VH: EVQLVESGGGLVQPGGSLRLSCAASGFTFKSYYMSWVRQAPGKGLEWVANIDYQSQHAYYAESVKGRFTISRDNAKNSLYLQMNSLRAEDTAVYYCARGYSAEFAHRSGLDVWGQGTLVTVSS
VL: QSVLTQPPSASGTPGQRVTISCSGSSSNIGSNYVYWYQQLPGTAPKLLIYRNNQRPSGVPDRFSGSKSGTSASLAISGLRSEDEADYYCAAWDRHSHGAVFGGGTKLTVLG
notes: Tagless disulfide-bridged human FabCys produced in HEK293 cells; also called MAB-7 Fab-Cys
**Q.** What does the source list for B6?
**A.** Kd [2]: 0.4 nM; koff [2]: 0.000158 s⁻¹; kon [2]: 370000 M⁻¹ s⁻¹; Kd [3]: 1.3 nM; koff [3]: 0.000627 s⁻¹; kon [3]: 499000 M⁻¹ s⁻¹; EC50 [4]: 3.7 nM; EC50 [7]: 6.1 nM

B7: MAB-9_h_FabCys (Fab, V domains shown)
VH: EVQLVESGGGLVQPGGSLRLSCAASGFTFRSHYMTWVRQAPGKGLEWVANIDYEGTRTYYAESVKGRFTISRDNAKNSLYLQMNSLRAEDTAVYYCARGYSAEFAHRSGLDVWGQGTLVTVSS
VL: QSVLTQPPSASGTPGQRVTISCSGSSSNIGINYVYWYQQLPGTAPKLLIYRNNIRPSGVPDRFSGSKSGTSASLAISGLRSEDEADYYCAAWDRHSHGAVFGGGTKLTVLG
notes: Tagless disulfide-bridged human FabCys produced in HEK293 cells; also called MAB-9 Fab-Cys
**Q.** For B7, which kon [2] is on record?
**A.** 446000 M⁻¹ s⁻¹

**Q.** And the Kd [3]?
**A.** 0.2 nM

**Q.** And the koff [3]?
**A.** 0.000122 s⁻¹

**Q.** And the kon [3]?
**A.** 724000 M⁻¹ s⁻¹

**Q.** What about the koff [8] of the same binder?
**A.** ≤ 5e-05 s⁻¹

**Q.** What about the EC50 [4] of the same binder?
**A.** 4.7 nM

**Q.** And the Kd [6]?
**A.** ≤ 0.1 nM

**Q.** And the EC50 [7]?
**A.** 7.7 nM
